The data set can be described thus: amyloid nucleation score (Sup35N fusion, yeast selection) (log enrichment); library NNK1; higher = more nucleation; inactive = no reads after selection. The gist of the method: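 The nucleation score is a DiMSum log enrichment of output over input reads, centred on the mode score of non-aggregating sequences. Sequences under 100 input reads were excluded, and reads came from Illumina sequencing of plasmid inserts. Psi-negative yeast expressing Sup35N fused to peptides of 20 random codons were induced with 100 μM copper sulfate for 24 hours and grown 7 days at 30°C on medium lacking adenine and uracil. Random libraries had three technical output replicates.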

± gives the uncertainty stated by the source.

IQLILSSAEFFSLAGSREYR: the amyloid nucleation score is 2.43 ± 0.22.
SNKFKPVWRVLMSRVSVEAW displayed an amyloid nucleation score of -0.133 ± 0.68.
LLSYFLRNPYMSNGTTGLHG came in with an amyloid nucleation score of 0.144 ± 0.79.
The figure for REIIGRLLSVRTSLAEYNSG is -0.514 ± 0.91.
The same measure for TALSFRYVYLI: -0.612 ± 0.61.
DCIACRECSMTSKLLGGLGT yielded an amyloid nucleation score of 0.859 ± 0.39.
STSDMLVDSRQIVGEYTSDL returned an amyloid nucleation score of -1.3 ± 1.7.
The figure for ILSNTRSVFYSSN is -0.089 ± 0.38; for SNLQWYRTKGGVGLVTVMWR it is 0.981 ± 0.16; for SFRFNGGTFVHSSKTKP it is 0.441 ± 0.3.
The same measure for LKSPTWPMSHSDRLTHRLLC: 0.004 ± 0.69.
Take AMQKESRGTWGSVTAQVHGM: the amyloid nucleation score is 0.304 ± 0.59.
SPPTMIETGTHKASSH yielded an amyloid nucleation score of 0.199 ± 0.57.
The figure for ALGYIPPRRCMTGSPPSVPR is 0.529 ± 0.84; for LCKFYPAFTGTTCTNLLSVW it is 0.321 ± 0.84; for GNDIEAIKHSGLLLSSWTMG it is -0.253 ± 1.2.
The figure for GPLKPFNASLVGTGAVLHGE is 0.034 ± 0.52; for DAHAISINHYRLSQTLSVPW it is -0.148 ± 0.35.
The figure for HSSNFGRDSNSWLRAVD is -0.3 ± 0.61.
With RTGVIWYY, the amyloid nucleation score was -0.677 ± 1.
The figure for EAMLKFTVYTIVRSFNAKSR is 1.11 ± 0.32.
The same measure for FYQTS: 0.634 ± 0.4; for FSGVMLPVLIISRF: “inactive”; for IWALKVWLRLTYCHICFRVV: 0.265 ± 0.58.
The same measure for MEWLYRNTATFCR: -0.657 ± 1.7; for PLVGWSRYSGAIPTSVMFLA: 4.21 ± 0.071; for GTIVEWAT: “inactive”.
With MRLSQRWPNSKVCDLRHSRP, the amyloid nucleation score was 0.632 ± 0.45.
The figure for RTGSAASG is -0.564 ± 0.38; for TGATFMMRGVNLCEGSKSGN it is -0.198 ± 0.5.
Take GCNMII: the amyloid nucleation score is -0.34 ± 0.38.
The figure for FEGRGFKDNATQENNSEFAS is 0.4 ± 0.46; for HVIYRLRGFITSSPFMTLRT it is 0.577 ± 0.45.
Regarding YYTCSSETM, the amyloid nucleation score amounted to 0.811 ± 0.39.
FIGMTDPMSIDILLLSS yielded an amyloid nucleation score of 0.389 ± 0.58.
The same measure for GRIVVTSQFMMIGRWGSPPP: 3.29 ± 0.1.
Regarding RVDPLV, the amyloid nucleation score entry is “inactive”.
The figure for LNPLVLSCSGEIDSMFNV is 1.11 ± 0.34; for LYLIGTILNLIGY it is 5.746 ± 0.045; for DNNTVITIEQC it is 0.286 ± 1.
The same measure for MAFMHLIISYCRYIF: 0.341 ± 0.74; for FDIVDANKGAAPGKTVYLWR: 0.641 ± 0.93.
PLHWS gave an amyloid nucleation score of 0.416 ± 0.3.
Regarding ECKWSLKNHYWVYDGLRGGT, the amyloid nucleation score is -0.378 ± 0.78.
In the case of GLVHEAHLDANKFFH, the amyloid nucleation score is -0.139 ± 0.71.
The figure for HRSRITLANVS is -0.666 ± 0.32; for YPMRTQRVASHMV it is -0.383 ± 0.58.
MCMQKVL displayed an amyloid nucleation score of -0.263 ± 1.4.
Consider YFWGKHTRFMISY, for which the amyloid nucleation score is 0.018 ± 0.36.
Turning to YHSSKGCIVCCR, the amyloid nucleation score was -0.391 ± 0.24.
KIRVDRFNIRSCDIGSDLCY showed an amyloid nucleation score of -1.07 ± 0.43.
In the case of NHPTRPLTTQLGLAAQAKSG, the amyloid nucleation score is -0.153 ± 0.47.
The figure for KKFEVSL is 0.159 ± 0.68; for YEPDELTWSHCTELTEALML it is -0.433 ± 0.66; for NQACAFYNRLRFGK it is 3.27 ± 0.14.
Substance GHTLRDVWASVEVRSNVDLD returned an amyloid nucleation score of 0.54 ± 0.82.
The same measure for KTCYLQ: -0.284 ± 1.1; for PRRQETWANEGHGM: 0.426 ± 0.93.
As for IYASLNVEICFADLPWSTWV, the amyloid nucleation score is 0.358 ± 0.81.
The same measure for CHCNL: 1.81 ± 0.38.
Turning to VNLFVLYPIYLFGSCSHNLM, the amyloid nucleation score came out at 7.373 ± 0.053.
The figure for RGNSFIRRY is 0.285 ± 0.47.
The same measure for KNDDTRFR: 0.358 ± 0.31; for RGPLDP: 0.361 ± 0.45.
As to AWFGYISYWNEFFLWDCFWS, the amyloid nucleation score was -0.366 ± 0.4.
In turn, CMILFTNRQRVMRLVLCLSD returned an amyloid nucleation score of 0.044 ± 0.49.
The figure for VRLRDVILSKVATMSF is -0.363 ± 0.27.
The figure for CSGMMARPWIYLVGVYKISN is 2.26 ± 0.17; for SMVSFII it is -0.278 ± 0.72.
The same measure for SWFYDGCSRPWRGIGDRRVC: -0.812 ± 0.91; for FVTQAGRGMHR: 0.682 ± 0.75.
NREGCIMWHRRVLARRCLTS yielded an amyloid nucleation score of 0.145 ± 0.89.
The same measure for VELLIEFLSRLGWIGCRHVL: 0.08 ± 0.86.
The figure for GILKCAYKT is 0.664 ± 0.66.
The same measure for RSCMRPFIGIMSSSPQIDKA: -0.53 ± 0.77; for VIASSATGYIHR: 2.46 ± 0.12.
In the case of LYHWYLRR, the amyloid nucleation score entry was “inactive”.
The figure for GLAASHSTSCSSYMISCWSR is -0.055 ± 0.55; for TRNVQHRIRSKSTISDKQIF it is “inactive”; for NLGVVSIHDRHRYVAKVYSS it is 0.844 ± 0.5.
Consider VGWFFMYVPSSSAVFSKFLN, for which the amyloid nucleation score result was “inactive”.
The entry for RSSGVSVGYFRAFS is “inactive”.
The same measure for YGVEMLPHISNAVTLFFGN: 8.133 ± 0.057.
The figure for FMCTINKFLYTVACPWHYLP is 3.96 ± 0.16; for GQGALDYF it is “inactive”; for LFSNPFRQAWH it is -0.445 ± 0.71.
With HCAYRFASENEMKGG, the amyloid nucleation score worked out at 0.321 ± 0.65.
The figure for SYIALIELFLFDSRRGHESV is 0.078 ± 0.35; for ALQTPFSKNMEYCCNQ it is 0.222 ± 0.41.
The figure for LLLDTLVCVVKHTNTCFSKW is 0.503 ± 0.26.
As for APRAAN, the amyloid nucleation score was -0.126 ± 0.41.
The figure for IWFLHHEVKF is 0.603 ± 0.58; for LTSWLDYDDISEWHRSDGFR it is 0.987 ± 0.57; for IGFPRLTSEDS it is 0.755 ± 0.4.
In turn, SALIAMYYHSSGTMWIQYFC came in with an amyloid nucleation score of 0.145 ± 0.83.
The figure for FDGFRGNG is 0.487 ± 0.49; for NQYLDVGVRKSNAECKVPHE it is “inactive”; for AISYDTYYTGELSSLWSGLS it is 0.666 ± 0.57.
The figure for NGYELYTDQGGQLVVCDESS is -2.07 ± 1.6.
SGCVQDCSLKRIFLMPDKAL registered an amyloid nucleation score of -1.03 ± 0.55.
Turning to TWCCEVNAAVEHG, the amyloid nucleation score is -1.17 ± 1.1.
Substance MTSVADECSLYSWAYSWLMS yielded an amyloid nucleation score of 1.84 ± 0.57.
The same measure for LYTVTTKR: -0.119 ± 0.31; for SEYLASMAVTRFLGIGWMNS: 0.548 ± 0.57.
The same measure for DNLNYEMHVLWMCNL: 4.82 ± 0.056; for VSLAAPGCGFGCQRSRGASQ: 0.013 ± 1.1; for KPWYFVISW: -0.007 ± 1.2.
The figure for LLLLIN is -0.663 ± 1.7; for PSLVQNGSQSTPVEDYIIEY it is -0.618 ± 0.65; for PGGSIRGFSRLSKLHWDRGE it is 0.252 ± 0.4.
The substance FGWLFVCEVSAAGPPTLIWT had an amyloid nucleation score of 3.11 ± 0.15.
As for YRTVSDTVAY, the amyloid nucleation score is 1.42 ± 0.79.
The figure for MGHTGYFQCKVATWCEGE is 0.792 ± 0.92.
With DFILLVVLYFVLYFFTCMVL, the amyloid nucleation score worked out at 0.22 ± 0.72.
The same measure for TKVKCSLLSFWEKKFLLLRL: 1.82 ± 0.34; for WAYWRYVNENRSVCRRKVGF: -0.053 ± 0.31.
The figure for IRTNKVFASMPYDNSDTFCS is -1.5 ± 1.9; for YRMSRLFTVVGAPVGSSLNF it is -1.58 ± 2.4.
Regarding TLIRGIIISRWRRVRNIDE, the amyloid nucleation score was -0.216 ± 0.3.
EKWGGGVM registered an amyloid nucleation score of -0.08 ± 0.58.
On to FGFVSPGPY, for which the amyloid nucleation score is -0.611 ± 0.51.
As to FNMNHGMVSVRVEDRISRAC, the amyloid nucleation score worked out at 0.579 ± 0.28.
FWQIAGRGFGRYG: the amyloid nucleation score is -0.258 ± 0.45.
With RKNFLGIGQKLGSSSDWGG, the amyloid nucleation score was -0.899 ± 1.
The figure for SSPWRYSDATFCTAGGEGKS is -0.465 ± 0.62; for DHFKKILGLCKSGCRVVERE it is 0.759 ± 0.41; for VFTHAFNMLCVFYTSQGLKR it is 5.35 ± 0.1.
Turning to FWTKSGSEEIITMVSTVRWR, the amyloid nucleation score was -0.749 ± 1.1.
SRRWNNDLGLFSRERKTTLV displayed an amyloid nucleation score of -1.06 ± 1.7.
Turning to LRRIKCYTFMIAGSILVVGT, the amyloid nucleation score entry is “inactive”.
Consider NSTPLADRCSVGMLPALKAD, for which the amyloid nucleation score was -0.351 ± 0.63.
The same measure for LMVNYRLRLYFFVLDSCDGE: -0.348 ± 0.28; for VLHFHVDDMDYNFFSW: 0.578 ± 0.33.
For PTMSLIDGIVGKLMDSRVGT, the amyloid nucleation score is -0.11 ± 0.32.
With RRLTILSTSPWCTPLELNSF, the amyloid nucleation score is -0.282 ± 0.37.
The same measure for FSALYPGREISA: 1.51 ± 0.84.
As for VNCGRMSAGCREVGWVDGES, the amyloid nucleation score was -0.316 ± 0.89.
The figure for FHSLRLRLMRNYG is -0.31 ± 1.4.
Regarding TVNRG, the amyloid nucleation score was determined as 0.409 ± 1.4.
The same measure for LMTRSVIVIRLMEEKSAA: 0.163 ± 1.4; for KISVSTVLSLLFGI: 1.3 ± 0.76.
The same measure for RLSRLLTLISVACSTFLCVV: -1.84 ± 2.1.

For the origin of these results see the supplement of paper PMC12042874.
